Assay results as given in patent US20240327480A1 (published 2024).
Ends that are not written are not given here. * marks the point of attachment. Biotin = O=C1N[C@H]2[C@H](CS[C@H]2CCCCC(=O)*)N1

T1: AA111-228 DNA-binding domain of RXR-alpha (human, UniProt P19793 111-228)
T1 construct: range 111-228; Bought recombinant protein (Abcam); also called RXRa-DBD; RXR-alpha DBD
T1 sequence (looked up): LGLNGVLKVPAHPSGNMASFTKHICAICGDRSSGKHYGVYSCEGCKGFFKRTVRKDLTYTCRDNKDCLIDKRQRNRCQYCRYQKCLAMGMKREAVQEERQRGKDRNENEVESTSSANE

T2: RXR-alpha ligand-binding domain (human, UniProt P19793 223-462, limits assumed)
T2 construct: Bought recombinant protein (Abcam); also called RXRa-LBD; RXR-alpha LBD
T2 sequence (looked up): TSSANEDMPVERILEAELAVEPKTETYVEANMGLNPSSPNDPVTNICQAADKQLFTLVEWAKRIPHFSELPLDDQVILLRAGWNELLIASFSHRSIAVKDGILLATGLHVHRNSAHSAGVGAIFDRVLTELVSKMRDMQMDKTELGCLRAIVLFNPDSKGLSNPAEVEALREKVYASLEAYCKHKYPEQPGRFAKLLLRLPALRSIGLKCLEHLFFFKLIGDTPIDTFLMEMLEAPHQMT

T3: full length RXR-beta (human, UniProt P28702 1-533)
T3 construct: mature; also called RXRβ; NR2B2
T3 sequence (looked up): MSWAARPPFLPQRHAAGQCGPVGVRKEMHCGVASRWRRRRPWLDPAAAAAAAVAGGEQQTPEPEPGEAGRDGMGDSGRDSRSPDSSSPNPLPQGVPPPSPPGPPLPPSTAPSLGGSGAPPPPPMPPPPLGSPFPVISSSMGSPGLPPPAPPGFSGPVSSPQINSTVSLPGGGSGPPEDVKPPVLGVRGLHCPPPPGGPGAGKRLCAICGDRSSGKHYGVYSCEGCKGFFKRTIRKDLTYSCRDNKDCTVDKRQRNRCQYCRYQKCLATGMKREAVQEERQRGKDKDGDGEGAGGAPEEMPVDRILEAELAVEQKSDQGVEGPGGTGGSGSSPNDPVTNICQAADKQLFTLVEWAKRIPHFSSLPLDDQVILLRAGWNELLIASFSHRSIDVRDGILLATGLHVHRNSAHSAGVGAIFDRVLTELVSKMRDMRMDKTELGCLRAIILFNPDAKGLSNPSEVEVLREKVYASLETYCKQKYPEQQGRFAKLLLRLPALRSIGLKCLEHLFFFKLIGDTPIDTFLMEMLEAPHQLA

T4: full length RXR-alpha (human, UniProt P19793 1-462)
T4 construct: mature; also called RXRα; NR2B1
T4 sequence (looked up): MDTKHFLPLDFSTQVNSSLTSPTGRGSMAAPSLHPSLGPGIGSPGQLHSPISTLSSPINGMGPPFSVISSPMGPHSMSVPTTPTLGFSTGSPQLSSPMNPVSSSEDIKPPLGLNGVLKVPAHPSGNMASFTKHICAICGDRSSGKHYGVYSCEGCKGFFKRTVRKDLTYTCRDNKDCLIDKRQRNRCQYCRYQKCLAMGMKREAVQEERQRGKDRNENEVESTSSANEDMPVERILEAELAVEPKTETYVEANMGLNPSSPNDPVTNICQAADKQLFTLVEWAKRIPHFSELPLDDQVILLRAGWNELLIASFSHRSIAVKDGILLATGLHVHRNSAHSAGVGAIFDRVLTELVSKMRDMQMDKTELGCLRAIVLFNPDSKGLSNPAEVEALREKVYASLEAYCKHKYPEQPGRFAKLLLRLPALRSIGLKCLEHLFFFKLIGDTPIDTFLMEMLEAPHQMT

T5: full length PPAR-gamma (human, UniProt P37231 1-505)
T5 construct: mature
T5 sequence (looked up): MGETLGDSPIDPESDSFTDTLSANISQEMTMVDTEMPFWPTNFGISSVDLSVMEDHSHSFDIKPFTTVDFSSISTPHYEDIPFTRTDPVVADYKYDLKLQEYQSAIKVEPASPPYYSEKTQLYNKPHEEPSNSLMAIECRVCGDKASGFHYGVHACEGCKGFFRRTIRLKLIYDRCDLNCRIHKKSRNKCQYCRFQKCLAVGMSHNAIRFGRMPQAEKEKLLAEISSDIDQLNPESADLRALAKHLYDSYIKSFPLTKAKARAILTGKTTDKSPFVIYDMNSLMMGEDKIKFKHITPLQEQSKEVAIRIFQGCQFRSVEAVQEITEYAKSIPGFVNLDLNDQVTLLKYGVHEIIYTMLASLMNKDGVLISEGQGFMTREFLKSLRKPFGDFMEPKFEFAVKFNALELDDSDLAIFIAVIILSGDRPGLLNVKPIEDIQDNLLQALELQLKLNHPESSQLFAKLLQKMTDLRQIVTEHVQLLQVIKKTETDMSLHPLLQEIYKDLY

T6: full length RXR-gamma (human, UniProt P48443 1-463)
T6 construct: mature; also called RXRγ; NR2B3
T6 sequence (looked up): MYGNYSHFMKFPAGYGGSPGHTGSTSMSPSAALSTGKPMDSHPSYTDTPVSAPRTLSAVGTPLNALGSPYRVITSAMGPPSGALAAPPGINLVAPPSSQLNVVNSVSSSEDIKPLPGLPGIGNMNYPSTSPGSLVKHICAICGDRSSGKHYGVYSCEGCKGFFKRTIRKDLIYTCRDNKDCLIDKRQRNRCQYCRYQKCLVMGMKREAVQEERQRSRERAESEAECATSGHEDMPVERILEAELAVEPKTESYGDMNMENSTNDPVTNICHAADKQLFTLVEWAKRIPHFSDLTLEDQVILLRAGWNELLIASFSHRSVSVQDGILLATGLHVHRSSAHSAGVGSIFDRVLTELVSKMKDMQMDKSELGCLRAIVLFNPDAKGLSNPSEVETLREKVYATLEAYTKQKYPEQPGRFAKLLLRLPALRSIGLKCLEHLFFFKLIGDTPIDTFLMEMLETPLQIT

B1: imm4 (peptide)
peptide: Biotin-RNGNFHPKQCHPALDGQRGKCW
modifications: cysteine pairing not given here; also: labelled with Streptavidin-Alexa 488 conjugate (SA488)
notes: Synthetic immodulin peptide derived from IGFBP-4
B2: imm6 (peptide)
peptide: Biotin-HRGFYRKRQCRSSQGQRRGPCW
modifications: cysteine pairing not given here; also: labelled with Streptavidin-Alexa 488 conjugate (SA488)
notes: Synthetic immodulin peptide derived from IGFBP-6; also called immodulin peptide-6
B3: imm3 (peptide)
peptide: Biotin-KKGFYKKKQCRPSKGRKRGFCW
modifications: cysteine pairing not given here; also: labelled with Streptavidin-Alexa 488 conjugate (SA488)
notes: Synthetic immodulin peptide derived from IGFBP-3; also called immodulin peptide-3
B4: imm5 (peptide)
peptide: Biotin-RKGFYKRKQCKPSRGRKRGICW
modifications: cysteine pairing not given here; also: labelled with Streptavidin-Alexa 488 conjugate (SA488)
notes: Synthetic immodulin peptide derived from IGFBP-5; also called immodulin peptide-5

How the values were obtained:
[1] = molecular target: T1, AA111-228 DNA-binding domain of …; test: plate binding assay, 800 ng/well SA488-labelled peptide on 100 ng/well adsorbed domain
Experimental: (§1) Experiment 4B. Binding of immodulin peptides to RXR isoforms and domains. 100 ng/well recombinant human RXRa-DBD or RXRa-LBD, or 400 ng/well full length RXR-alpha, RXR-beta, RXR-gamma or PPAR-gamma (Abcam, Cambridge, MA) was adsorbed to wells of a 96-well plate for 60 minutes at room temperature, then blocked with 200 uL 1% BSA in PBS buffer overnight. The plate was washed with PBS and 800 ng/well Streptavidin-Alexa 488 conjugate (SA488)-labelled peptide was added. The plate was incubated for 2 hours at room temperature, washed and counted in a fluorometer (excitation/emission 485/525 nm).

[2] = molecular target: T2, RXR-alpha ligand-binding domain; test: as above
Experimental: as §1

[3] = molecular target: T3, full length RXR-beta; test: plate binding assay, 800 ng/well SA488-labelled peptide on 400 ng/well adsorbed receptor
Experimental: as §1

[4] = molecular target: T4, full length RXR-alpha; test: as above
Experimental: as §1

[5] = molecular target: T5, full length PPAR-gamma; test: as above
Experimental: as §1

[6] = molecular target: T6, full length RXR-gamma; test: as above
Experimental: as §1

[7] = molecular target: T7, full-length human Nur77 (NR4A1) (human, UniProt P22736 1-598); test: plate binding assay, SA488-labelled peptide on adsorbed Nur77, fluorescence
T7 construct: mature
T7 sequence (P22736 whole entry): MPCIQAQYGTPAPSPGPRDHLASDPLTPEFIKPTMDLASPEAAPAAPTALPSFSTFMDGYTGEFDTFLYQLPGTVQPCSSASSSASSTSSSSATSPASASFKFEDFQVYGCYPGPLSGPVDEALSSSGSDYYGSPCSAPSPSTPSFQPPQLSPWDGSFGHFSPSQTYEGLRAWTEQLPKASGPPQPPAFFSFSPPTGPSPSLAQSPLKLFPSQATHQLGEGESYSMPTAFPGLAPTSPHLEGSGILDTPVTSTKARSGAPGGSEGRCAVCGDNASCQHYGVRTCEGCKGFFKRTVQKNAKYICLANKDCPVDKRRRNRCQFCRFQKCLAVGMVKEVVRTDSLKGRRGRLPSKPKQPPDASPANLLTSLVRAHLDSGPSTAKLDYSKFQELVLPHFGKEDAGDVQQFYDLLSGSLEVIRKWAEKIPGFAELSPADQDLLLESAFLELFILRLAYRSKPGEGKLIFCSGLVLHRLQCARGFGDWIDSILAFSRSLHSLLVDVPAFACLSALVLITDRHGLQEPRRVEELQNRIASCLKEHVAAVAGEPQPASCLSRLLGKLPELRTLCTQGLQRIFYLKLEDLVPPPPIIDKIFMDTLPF
Experimental: Experiment 4C. Binding of immodulin peptides to full-length human Nur77 (NR4A1). 400 ng/well recombinant human Nur77 protein (NR4A1) purchased from Abcam Inc, Cambridge, MA, was adsorbed to wells of a 96-well plate for 90 minutes at room temperature, then blocked with 200 uL 1% BSA in PBS buffer overnight. […] The plate was incubated for 60 min at room temperature, washed and counted in a standard fluorometer (excitation/emission 485/525 nm). Background (buffer alone) was subtracted.

[8] = molecular target: T1, AA111-228 DNA-binding domain of …; test: plate binding assay, 800 ng/well SA488-labelled peptide on 1 ug/well adsorbed RXRa-DBD
Experimental: Experiment 4A. Binding of immodulin peptides to AA111-228 DNA-binding domain of RXR-alpha (RXRa-DBD). 1 ug/well recombinant RXRa-DBD (Abcam, Cambridge, MA) was adsorbed to wells of a 96-well plate for 60 minutes at room temperature, then blocked with 200 uL 1% bovine serum albumin (BSA) in PBS buffer overnight. Plate was washed and 800 ng/well Streptavidin-Alexa 488 conjugate (SA488)-labelled immX peptide was added. The plate was incubated for 60 min at room temperature, washed and counted in a standard fluorometer (excitation/emission 485/525 nm). Background (buffer alone) was subtracted.

| Binder | fluorescence relative to imm3 binding (=100) [1] | fluorescence relative to imm3 binding (=100) [2] | fluorescence relative to imm3 binding (=100) [3] | fluorescence relative to imm3 binding (=100) [4] | fluorescence relative to imm3 binding (=100) [5] | fluorescence relative to imm3 binding (=100) [6] | binding result [7] | Fluorescence (background subtracted) [8] | fluorescence relative to imm3 binding (=100) (relative to imm3 binding (=100)) [5] |
| --- | --- | --- | --- | --- | --- | --- | --- | --- | --- |
| B1 | 3.2 relative to imm3 binding (=100) | 3 relative to imm3 binding (=100) | 0.3 relative to imm3 binding (=100) | 3.6 relative to imm3 binding (=100) | 0.1 relative to imm3 binding (=100) | 3.6 relative to imm3 binding (=100) | no binding (tested: 333 ng/well peptide on 400 ng/well Nur77) | 27 fluorescence counts |  |
| B2 | 22.9 relative to imm3 binding (=100) | 1.6 relative to imm3 binding (=100) | 4.7 relative to imm3 binding (=100) | 12.9 relative to imm3 binding (=100) |  | 42 relative to imm3 binding (=100) |  | 587 fluorescence counts | 6.8 |
| B3 | 22.2 relative to imm3 binding (=100) | 0.6 relative to imm3 binding (=100) | 2.9 relative to imm3 binding (=100) | 11.2 relative to imm3 binding (=100) | 2.1 relative to imm3 binding (=100) | 100 relative to imm3 binding (=100) |  | 6570 fluorescence counts |  |
| B4 | 22.7 relative to imm3 binding (=100) | 1.8 relative to imm3 binding (=100) | 4 relative to imm3 binding (=100) | 17.2 relative to imm3 binding (=100) | 1.6 relative to imm3 binding (=100) | 90 relative to imm3 binding (=100) |  | 6800 fluorescence counts |  |
